Experimental findings from paper PMC1092277 are described below.

Series [1] deals with GST-Pax6 HD (wild type) (zebrafish). Nature of the series: pull-down.
The target in series [2] is GST-Chx10 HD R44A (murine). Kind of series: pull-down.
Series [3] addresses GST-Pax6 HD R44A/R53A/R57A (zebrafish). Nature of the series: pull-down.
For another series, the target named is GST-Pax6 HD N51Q (zebrafish, UniProt P26630 229-288, N279Q). Nature of the series: EMSA.
For another series, the target named is GST-Chx10 HD Q50A (mouse, UniProt Q61412 148-207, Q197A). Nature of the series: EMSA. (In EMSA bound probe runs differently from free probe, usually more slowly.)
The next series addresses GST-Pax6 HD R44A (zebrafish, UniProt P26630 229-288, R272A). Kind of series: EMSA.
A further series concerns the target GST-Chx10 HD R57A (mouse, UniProt Q61412 148-207, R204A). Nature of the series: EMSA.
For another series, the target named is GST-Pax6 HD R58A (zebrafish, UniProt P26630 229-288, R286A). Nature of the series: EMSA.
The next series concerns the target GST-Pax6 HD R53A (zebrafish, UniProt P26630 229-288, R281A). Nature of the series: EMSA.
A further series addresses GST-Chx10 HD R53A (mouse, UniProt Q61412 148-207, R200A). Kind of series: EMSA.
The target of the next series is GST-Pax6 HD R57A (zebrafish, UniProt P26630 229-288, R285A). Kind of series: EMSA.
Chain of GST-Pax6 HD R57A (P26630 229-288 R285A): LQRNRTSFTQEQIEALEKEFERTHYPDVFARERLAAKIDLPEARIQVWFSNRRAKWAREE

Chain of GST-Pax6 HD R44A (P26630 229-288 R272A): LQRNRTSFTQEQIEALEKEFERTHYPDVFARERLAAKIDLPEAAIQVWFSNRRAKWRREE
Chain of GST-Pax6 HD R58A (P26630 229-288 R286A): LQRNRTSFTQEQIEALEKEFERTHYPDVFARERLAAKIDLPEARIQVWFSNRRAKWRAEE
Chain of GST-Chx10 HD R53A (Q61412 148-207 R200A): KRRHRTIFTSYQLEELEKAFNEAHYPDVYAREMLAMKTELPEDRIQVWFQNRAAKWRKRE
Chain of GST-Pax6 HD R53A (P26630 229-288 R281A): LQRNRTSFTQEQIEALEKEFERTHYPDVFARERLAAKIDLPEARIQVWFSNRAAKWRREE
Chain of GST-Chx10 HD R57A (Q61412 148-207 R204A): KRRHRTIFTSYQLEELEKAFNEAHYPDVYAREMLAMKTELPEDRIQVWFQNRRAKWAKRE
Chain of GST-Chx10 HD Q50A (Q61412 148-207 Q197A): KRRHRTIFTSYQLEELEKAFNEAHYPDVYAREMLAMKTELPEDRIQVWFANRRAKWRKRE
Chain of GST-Pax6 HD N51Q (P26630 229-288 N279Q): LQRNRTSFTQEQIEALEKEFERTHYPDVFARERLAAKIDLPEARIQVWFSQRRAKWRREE

Turning to Pax6ΔHD(E112A/E120A/E128A), the percent residual binding in series [1] was 15%.
Consider Pax6ΔHD(E112A/E120A/D123A/E128A), for which, in [1], the percent binding came out at 5%.
Turning to Pax6ΔHD(E101A/E112A/E120A/E128A), in [1], the percent binding came to 11%.
Pax6ΔHD (in vitro translated) came in with a percent binding in [2] of 50%. The same molecule came in with a percent binding compared with the wild-type HD in series [3] below 10%.

B1: HDp3 (dsDNA)
DNA 1: GATCCTCTAGATAATGCGATTAGCGTAG
DNA 2: GATCCTACGCTAATCGCATTATCTAGAG
As to B1, the binding result with GST-Pax6 HD N51Q is reported as “no binding”; in the series with GST-Chx10 HD Q50A it was “binds”; with GST-Pax6 HD R44A it was “no binding”; with GST-Chx10 HD R57A, “binds”; in the series with GST-Pax6 HD R58A it was “binds”; with GST-Pax6 HD R53A, “no binding”. In addition, the binding result with GST-Chx10 HD R53A was “no binding”; with GST-Pax6 HD R57A, “binds”.
